Drawing on PMC3570547, “An Experimental Verification of the Predicted Effects of Promoter TATA-Box Polymorphisms Associated with Human Diseases on Interactions between the TATA Boxes and TATA-Binding Protein”, this text covers Kd for 27 molecules.

The target of the data set is TBP (TATA-binding protein, hTBP) (Homo sapiens, UniProt P20226 1-339). Briefly: EMSA; Fixed active TBP (typically 0.3 nM) titrated with 32P dsDNA to equilibrium; buffer, salt, pH and temperature not given in the material. The following applies: protein: recombinant; label: 32P both strands; blunt.
Sequence of TBP (TATA-binding protein, hTBP) (P20226 whole entry): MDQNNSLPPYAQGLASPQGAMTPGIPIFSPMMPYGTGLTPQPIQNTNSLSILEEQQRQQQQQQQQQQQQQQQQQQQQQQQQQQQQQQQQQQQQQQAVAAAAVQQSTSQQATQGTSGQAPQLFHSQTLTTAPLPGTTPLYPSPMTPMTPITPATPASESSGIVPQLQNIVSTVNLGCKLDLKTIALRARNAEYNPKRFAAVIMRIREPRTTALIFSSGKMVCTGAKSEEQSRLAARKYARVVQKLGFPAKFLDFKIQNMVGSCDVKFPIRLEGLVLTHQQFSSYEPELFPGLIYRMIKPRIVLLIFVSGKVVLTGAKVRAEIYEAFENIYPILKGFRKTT

B1: MBL2 -35T>C (dsDNA)
DNA 1: CATCTATTTCTACATAGCCTGCACCC
DNA 2: GGGTGCAGGCTATGTAGAAATAGATG
Turning to B1, the Kd amounted to 58 ± 9 nM.

B2: CYP2A6 -48T>G (dsDNA)
DNA 1: TTTCAGGCAGTAGAAAGGCAAACCAC
DNA 2: GTGGTTTGCCTTTCTACTGCCTGAAA
With B2, the dissociation constant Kd was determined as 80 ± 20 nM.

B3: TF TATA WT (-21C) (dsDNA)
DNA 1: GCCGGCCCTTTATAGCGCGCGGGGCA
DNA 2: TGCCCCGCGCGCTATAAAGGGCCGGC
Consider B3, for which the Kd came to 72 ± 9 nM.

B4: SOD1 TATA WT (dsDNA)
DNA 1: AGGTCTGGCCTATAAAGTAGTCGCGG
DNA 2: CCGCGACTACTTTATAGGCCAGACCT
For B4, the dissociation constant Kd worked out at 40 ± 8 nM.

B5: TPI -24T>G (dsDNA)
DNA 1: CGCGGCGCTCTATAGAAGTGGGCAGT
DNA 2: ACTGCCCACTTCTATAGAGCGCCGCG
As for B5, the Kd was found to be 150 ± 20 nM.

B6: IL1B TATA WT (dsDNA)
DNA 1: TTTTGAAAGCCATAAAAACAGCGAGG
DNA 2: CCTCGCTGTTTTTATGGCTTTCAAAA
Take B6: the Kd worked out at 29 ± 4 nM.

B7: HBD TATA WT (dsDNA)
DNA 1: ACAGGACCAGCATAAAAGGCAGGGCA
DNA 2: TGCCCTGCCTTTTATGCTGGTCCTGT
B7: the Kd came to 46 ± 5 nM.

B8: HBB TATA WT (dsDNA)
DNA 1: CAGGGCTGGGCATAAAAGTCAGGGCA
DNA 2: TGCCCTGACTTTTATGCCCAGCCCTG
As to B8, the Kd was determined as 44 ± 3 nM.

B9: TF -21C>T (dsDNA)
DNA 1: GCCGGCCCTTTATAGTGCGCGGGGCA
DNA 2: TGCCCCGCGCACTATAAAGGGCCGGC
Consider B9, for which the Kd was found to be 26 ± 3 nM.

B10: HBB -31A>G (dsDNA)
DNA 1: CAGGGCTGGGCGTAAAAGTCAGGGCA
DNA 2: TGCCCTGACTTTTACGCCCAGCCCTG
With B10, the Kd amounted to 99 ± 9 nM.

B11: globin pseudogene TATA WT (dsDNA)
DNA 1: CTGCCACACCCACATTATTAGAAAAT
DNA 2: ATTTTCTAATAATGTGGGTGTGGCAG
With B11, the Kd was 152 ± 6 nM.

B12: SOD1 -27A>G (dsDNA)
DNA 1: AGGTCTGGCCTGTAAAGTAGTCGCGG
DNA 2: CCGCGACTACTTTACAGGCCAGACCT
Take B12: the Kd is 170 ± 30 nM.

B13: NOS2A TATA WT (dsDNA)
DNA 1: ATGGGGTGAGTATAAATACTTCTTGG
DNA 2: CCAAGAAGTATTTATACTCACCCCAT
B13: the Kd amounted to 1.8 ± 0.2 nM.

B14: HBB -28A>C (dsDNA)
DNA 1: CAGGGCTGGGCATACAAGTCAGGGCA
DNA 2: TGCCCTGACTTGTATGCCCAGCCCTG
Take B14: the Kd was 300 ± 20 nM.

B15: globin pseudogene -70T>C (dsDNA)
DNA 1: CTGCCACACCCACATTATCAGAAAAT
DNA 2: ATTTTCTGATAATGTGGGTGTGGCAG
B15: the Kd was found to be 112 ± 6 nM.

B16: NOS2A -21T>C (dsDNA)
DNA 1: ATGGGGTGAGTATAAATACCTCTTGG
DNA 2: CCAAGAGGTATTTATACTCACCCCAT
As for B16, the Kd worked out at 1.6 ± 0.3 nM.

B17: HBB -30T>C (dsDNA)
DNA 1: CAGGGCTGGGCACAAAAGTCAGGGCA
DNA 2: TGCCCTGACTTTTGTGCCCAGCCCTG
On to B17, for which the Kd was found to be 111 ± 8 nM.

B18: TPI TATA WT (dsDNA)
DNA 1: CGCGGCGCTCTATATAAGTGGGCAGT
DNA 2: ACTGCCCACTTATATAGAGCGCCGCG
Take B18: the Kd was 4.8 ± 0.7 nM.

B19: HBD -31A>G (dsDNA)
DNA 1: ACAGGACCAGCGTAAAAGGCAGGGCA
DNA 2: TGCCCTGCCTTTTACGCTGGTCCTGT
B19: the Kd was 120 ± 10 nM.

B20: HBB -28A>G (dsDNA)
DNA 1: CAGGGCTGGGCATAGAAGTCAGGGCA
DNA 2: TGCCCTGACTTCTATGCCCAGCCCTG
In the case of B20, the Kd was 87 ± 8 nM.

B21: HBB -27A>T (dsDNA)
DNA 1: CAGGGCTGGGCATAATAGTCAGGGCA
DNA 2: TGCCCTGACTATTATGCCCAGCCCTG
Consider B21, for which the Kd was 64 ± 3 nM.

B22: IL1B -31C>T (dsDNA)
DNA 1: TTTTGAAAGCTATAAAAACAGCGAGG
DNA 2: CCTCGCTGTTTTTATAGCTTTCAAAA
With B22, the Kd is 7 ± 1 nM.

B23: FIX TATA WT (dsDNA)
DNA 1: ACAGCTCAGCTTGTACTTTGGTACAA
DNA 2: TTGTACCAAAGTACAAGCTGAGCTGT
For the molecule B23, the Kd was determined as 510 ± 60 nM.

B24: MBL2 TATA WT (dsDNA)
DNA 1: CATCTATTTCTATATAGCCTGCACCC
DNA 2: GGGTGCAGGCTATATAGAAATAGATG
As to B24, the Kd was found to be 28 ± 4 nM.

B25: CYP2A6 TATA WT (dsDNA)
DNA 1: TTTCAGGCAGTATAAAGGCAAACCAC
DNA 2: GTGGTTTGCCTTTATACTGCCTGAAA
B25: the Kd stood at 17 ± 4 nM.

B26: HBB -30T>A (dsDNA)
DNA 1: CAGGGCTGGGCAAAAAAGTCAGGGCA
DNA 2: TGCCCTGACTTTTTTGCCCAGCCCTG
In the case of B26, the Kd came to 116 ± 5 nM.

B27: HBB -29A>G (dsDNA)
DNA 1: CAGGGCTGGGCATGAAAGTCAGGGCA
DNA 2: TGCCCTGACTTTCATGCCCAGCCCTG
Take B27: the Kd amounted to 390 ± 20 nM.
